Laboratory results published in patent US20060148030A1, “Nuclear receptor err y 3” (FUJISAWA PHARMACEUTICAL CO., LTD, priority 2002, published 2006).

Molecular target: T1, ERα (Homo sapiens, UniProt P03372)
T1 construct: expressed in transfected cells; host or cells: CV-1 (African green monkey kidney)
T1 sequence (P03372 1-595): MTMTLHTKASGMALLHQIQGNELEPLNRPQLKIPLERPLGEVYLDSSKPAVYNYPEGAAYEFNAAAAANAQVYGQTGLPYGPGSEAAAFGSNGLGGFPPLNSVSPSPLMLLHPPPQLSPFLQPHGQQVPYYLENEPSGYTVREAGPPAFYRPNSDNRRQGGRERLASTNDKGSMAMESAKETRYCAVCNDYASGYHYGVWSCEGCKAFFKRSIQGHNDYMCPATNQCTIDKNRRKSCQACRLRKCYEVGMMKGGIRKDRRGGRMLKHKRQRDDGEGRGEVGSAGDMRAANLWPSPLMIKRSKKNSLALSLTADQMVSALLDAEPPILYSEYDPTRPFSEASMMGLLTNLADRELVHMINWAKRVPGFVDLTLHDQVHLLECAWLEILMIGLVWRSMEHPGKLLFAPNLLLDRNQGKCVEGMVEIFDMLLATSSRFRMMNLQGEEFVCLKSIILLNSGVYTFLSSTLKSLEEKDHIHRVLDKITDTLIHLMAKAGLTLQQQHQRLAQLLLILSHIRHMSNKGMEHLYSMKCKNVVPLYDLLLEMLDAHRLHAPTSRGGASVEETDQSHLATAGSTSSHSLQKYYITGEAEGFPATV
Assay: Reporter gene assay, ERRγ3 or ERRγ2 coexisted with ERα in CV-1 cells
Type: cell-based
Settings: ERRγ2 with ERα, CV-1 cells; FIGS. 19-20
Protocol: The reporter gene assay was performed using CV-1 cells (African green monkey kidney-derived cell line) as hosts. Host cells were transfected with luciferase reporter plasmids and expression plasmids for ERRγ3, ERRγ2, or both. They were then exposed to 4-hydroxytamoxifen at different concentrations (0, 10^−10 to −10^−5 M) for 24 hours, whereupon luciferase activity within the cells was measured.
Transfection was performed as follows: CV-1 cells were suspended at 2×10^5 cells/2.5 ml in DMEM medium supplemented with 10% fetal bovine serum, 2000 U/l of penicillin G, and 100 mg/l streptomycin. These cells were seeded to a 6-well plate at 2.5 ml/well, and cultured for 18 to 24 hours in a CO2 incubator at 37° C. in the presence of 5% CO2. 1 μg of each of the transcription factor expression plasmid, the luciferase reporter plasmid, and another luciferase reporter plasmid for normalizing the measured value (pRL-TK), were dissolved in Opti-MEM (Gibco BRL) to total of 150 μl. 7 μl of the cell transfection reagent LipofectAMINE 2000 (Gibco BRL) was diluted in 143 μl of Opti-MEM, and this was added to the mixture drop by drop while stirring. The mixture was incubated for 20 minutes.
The LipofectAMINE-DNA mixture was diluted in 1.5 ml of Opti-MEM, and added to cells that had been twice washed with 1 ml of PBS(−). The cells were cultured for four hours. The transfection reagent was removed from the culture, and 200 μl of trypsin/EDTA was added to the cells, which were then incubated at 37° C. for five minutes. […] of DMEM was added to suspend the cells, which were transferred to a centrifuge tube, and centrifuged for three minutes at 1000 rpm. After centrifugation, the cells were resuspended in DMEM to a concentration of 1.6×10^4 cells/100 μl, and 100 μl samples were seeded to a 96-well plate. When evaluating agents, a two-fold concentrated solution was made by pre-diluting a 1000 times concentrated agent DMSO solution with culture medium. 50 μl of the solution was mixed with 50 μl of a cell suspension at 1.6×10^4 cells/50 μl, and the culture was incubated in a CO2 incubator at 37° C. and 5% CO2 for 24 hours.
Luciferase activity was measured using the Dual-Luciferase™ Reporter Assay System (Promega). The culture supernatant was removed from each well of the 96-well plate and washed once with 100 μl of PBS(−). 20 μl of ×1 PLB (Passive Lysis Buffer) was added, and the mixture was incubated at room temperature for 15 minutes, and then stored at −20° C. in the freezer until use. […] The protocol for measurement was as follows: 50 μl of Luciferase Assay Reagent II was added to each well, stirred for 0.3 seconds and measured for one second. […] of Stop&Glo™ Reagent was then added, stirred for 0.3 seconds, and measured for one second. […] Average values and standard errors were calculated from triplicate samples.
To confirm whether or not ERRγ3 can regulate the transcription-controlling function of nuclear receptors other than ERRγ2, ERRγ3's function of regulating the transcription-controlling activity of nuclear receptors related to ERRγ (ERα, ERβ, and TR) was evaluated using a reporter gene assay. […] In addition to 4-hydroxytamoxifen, the cells were also contacted with 10^−5 M of (R)-estradiol in experiments related to ERα and ERβ, and 10^−5 M of thyroxine in the experiment related to TR.
The transfected cells were contacted with varying concentrations of 4-hydroxytamoxifen in the absence of […] or presence of 10^−7 M of β-estradiol.

B1: ERRγ2: known human ERRγ isoform, the long form (SEQ ID NO: 6) (protein, listed as Homo sapiens)
chain: MDSVELCLPESFSLHYEEELLCRMSNKDRHIDSSCSSFIKTEPSSPASLTDSVNHHSPGGSSDASGSYSSTMNGHQNGLDSPPLYPSAPILGGSGPVRKLYDDCSSTIVEDPQTKCEYMLNSMPKRLCLVCGDIASGYHYGVASCEACKAFFKRTIQGNIEYSCPATNECEITKRRRKSCQACRFMKCLKVGMLKEGVRLDRVRGGRQKYKRRIDAENSPYLNPQLVQPAKKPYNKIVSHLLVAEPEKIYAMPDPTVPDSDIKALTTLCDLADRELVVIIGWAKHIPGFSTLSLADQMSLLQSAWMEILILGVVYRSLSFEDELVYADDYIMDEDQSKLAGLLDLNNAILQLVKKYKSMKLEKEEFVTLKAIALANSDSMHIEDVEAVQKLQDVLHEALQDYEAGQHMEDPRRAGKMLMTLPLLRQTSTKAVQHFYNIKLEGKVPMHKLFLEMLEAKV
In the case of B1, the “enhancement of transcription when ERRγ2 coexisted with ERα” value is reported as “showed the function of enhancing transcription”.
